The test system of one experiment is tobacco. The experiment can be described thus: Glyphosate tolerance of transgenic tobacco. In kind it is in vivo. As to conditions: transgenic plants, greenhouse assays. How it is done: (4) Transformation of tobacco was carried out according to the leaf disc transformation protocol, using sterilized tissue of a healthy leaf of about 2 weeks old. The main vein was removed and the leaf was cut into small pieces of 2 cm^2.
(8) After development of the roots, plants were taken out. The attached solid culture media was washed off with sterile water. The plants were initially kept in a high humidity environment such as a plastic container with a glass cover for a few days. After the plants had grown stronger, the glass covers were removed, and the plants were transferred to solid culture media containing 10 mM glyphosate for screening of glyphosate tolerant plants.
(10) Glyphosate tolerance assays in greenhouse also confirmed that the transgenic plants could grow well in media containing 15 mM glyphosate.

The next experiment relates to E. coli JM109. The experiment can be described thus: Glyphosate tolerance of E. coli JM109 transformants on MOPS media plates. As to conditions: bacteria transformed with DNA encoding the enzyme (summary of Example 1). The format is cell-based. An excerpt: A SuperCos1 Cosmid Vector kit (Stratagene Co., Ltd) was used to construct a community genomic DNA cosmid library. The community genomic DNA was digested with restriction endonuclease Sau3AI at 0.006 unit/microgram purified DNA. DNA fragments of about 40 kb were collected using the freeze-thaw method, and then ligated with SuperCos1/BamH1 vector. A cosmid genomic DNA library was constructed according to the manual of Stratagene Co., Ltd. For screening of glyphosate tolerant clones, JM109 E. coli was used as the acceptor bacterium for the genomic library construct, as glyphosate is only effective on an inhibitory medium such as M9 and MOPS. The ligated DNA was packaged into lambda phage particles (Stratagene, Gigapack Gold) according to the manufacturer's protocol. E. coli strain JM109 was infected with the packaged product. The transformants were selected on tetracycline LB media. Positive clones were then plated on LB media containing tetracycline and tetracycline+kanamycin, respectively. Clones growing on both media were considered as negative recombinants resulting from vector ligated with vector DNA. The number of positive transformants was calculated as the total number of colonies minus background false negative colonies. This number was used to determine the titer of the genomic library, which was 4×10^6 pfu/ml, meeting the requirement for library construction (>10^6 pfu/ml). […]

B1: EPSP synthase: novel 444 amino acid EPSP synthase highly tolerant to glyphosate, encoded by SEQ ID NO:1/3 (protein, listed as Unknown bacterium)
chain: MACLPDDSGPHVGHSTPPRLDQEPCTLSSQKTVTVTPPNFPLTGKVAPPGSKSITNRALLLAALAKGTSRLSGALKSDDTRHMSVALRQMGVTIDEPDDTTFVVTSQGSLQLPAQPLFLGNAGTAMRFLTAAVATVQGTVVLDGDEYMQKRPIGPLLATLGQNGIQVDSPTGCPPVTVHGMGKVQAKRFEIDGGLSSQYVSALLMLAACGEAPIEVALTGKDIGARGYVDLTLDCMRAFGAQVDAVDDTTWRVAPTGYTAHDYLIEPDASAATYLWAAEVLTGGRIDIGVAAQDFTQPDAKAQAVIAQFPNMQATVVGSQMQDAIPTLAVLAAFNNTPVRFTELANLRVKECDRVQALHDGLNEIRPGLATIEGDDLLVASDPALAGTACTALIDTHADHRIAMCFALAGLKVSGIRIQDPDCVAKTYPDYWKAWPSLGVHLND
With B1, the “glyphosate concentration in which transgenic tobacco grew” value in the experiment on tobacco was determined as 15 mM. In addition, the “glyphosate concentration of media in which transformed bacteria grew” value with E. coli JM109 fell in the range of 10 to 150 mM.

The record behind these values is patent publication US20050223436A1, “EPSP synthase highly tolerant to glyphosate” (priority 2003, published 2005).
